IC50 and concentration required to partially compete for binding data for two molecules are collected here from patent US6034212.

Ends that are not written are not given here. * marks the point of attachment. Biotin = O=C1N[C@H]2[C@H](CS[C@H]2CCCCC(=O)*)N1

The target in assay [1] is GST-WW-YAP fusion protein (WW domain of human YAP in pGEX-2TK) (human). Kind of assay: competition of a fixed concentration of labelled GST-WW-YAP on blotted GST-…, densitometry (data not shown).
Assay [2] addresses GST-SH3-Yes fusion protein (Gallus gallus (Chicken)) (UniProt P09324). Description: competition of labeled GST-YES-SH3 binding to blotted TrpE-YAP65.

B1: unlabelled decapeptide biotin-… containing the PY motif (peptide)
peptide: Biotin-GTPPPPYTVG
B1: in assay [1], the half-inhibitory concentration (IC50) – broadly, the concentration needed to halve the response being measured – came out at 750 nM. This counts as sub-micromolar.

B2: PLAP peptide (peptide)
peptide: ISQSAPVKQPPPLAPQSPQGGV
In the case of B2, the concentration required to partially compete for binding in assay [2] was 200 µM.
